From patent US20090257987A1, “Method of generating dopamine-secreting cells” (Ramot At Tel Aviv University Ltd., priority 2008, published 2009) come the findings set out here.

In test [1] the test system is human MSCs. The test can be described thus: Immunocytochemistry for neuronal markers Tuj1 and NeuN. Format: cell-based. Here is the method: Induction of differentiation: The differentiation protocol was composed of 2 steps. In step 1, cells were transferred to serum-free medium (DMEM) supplemented with 2 mM glutamine, 100 μg/ml streptomycin, 100 units/ml penicillin, 12.5 units/ml nystatin (Biological Industries), N2 supplement (Invitrogen, New Haven, Conn.) and 20 ng/ml fibroblast growth factor 2 and epidermal growth factor (both from R&D Systems, Minneapolis, Minn.) for 48-72 hours. In step 2, the medium was changed to Basic induction medium containing Neurobasal, B27 (both from Invitrogen), in addition to 1 mM dibutyryl cyclic AMP (dbcAMP), 3-isobutyl-1-methyl-xanthine (IBMX), and 200 μM ascorbic acid (all from Sigma, St Louis, Mo.). […] Cells were photographed with a fluorescence Olympus IX70-[…] microscope with a fluorescent light source (excitation wavelength, 330-385 nm; barrier filter, 420 nm) and a U-MNU filter cube (Olympus, Center Valley, Pa.).

The test system of test [2] is human MSCs. Nature of the test: Real-time quantitative PCR of Nurr1 and GAD67. It is filed as cell-based. The conditions noted are these: real-time PCR versus GAPDH. How it is done: Induction of differentiation: The differentiation protocol was composed of 2 steps. In step 1, cells were transferred to serum-free medium (DMEM) supplemented with 2 mM glutamine, 100 μg/ml streptomycin, 100 units/ml penicillin, 12.5 units/ml nystatin (Biological Industries), N2 supplement (Invitrogen, New Haven, Conn.) and 20 ng/ml fibroblast growth factor 2 and epidermal growth factor (both from R&D Systems, Minneapolis, Minn.) for 48-72 hours. […]
RNA isolation and cDNA synthesis: Total RNA was isolated by a commercial TriReagent (Sigma). The amount and quality of RNA was determined with the ND-1000 spectrophotometer (NanoDrop, Wilmington, Del.). […]
Real-time quantitative reverse transcription polymerase chain reaction (PCR): Real-time quantitative PCR of the desired genes was performed in an ABI Prism 7700 sequence detection system (Applied Biosystems, Foster City, Calif.) using Syber Green PCR Master Mix (Applied Biosystems) and the following primers: glyceraldehyde-3-phosphate dehydrogenase (GAPDH) sense CGACAGTCAGCCGCATCTT (SEQ ID NO: 1), GAPDH antisense […] […] For each gene, the specificity of the PCR product was assessed by verifying a single peak in the melting curve analysis. […] Quantitative calculations of the gene of interest versus GAPDH were done according to the ΔΔCT method, as instructed in the user bulletin of the ABI Prism 7700 sequence detection system (updated 10/2001).

B1: brain-derived neurotrophic factor (protein, UniProt P23560 19-247, looked up)
Neurotrophic factor BDNF …: APMKEANIRGQGGLAYPGVRTHGTLESVNGPKAGSRGLTSLADTFEHVIEELLDEDQKVRPNEENNKDADLYTSRVMLSSQVPLEPPLLFLLEEYKNYLDAANMSMRVRRHSDPARRGELSVCDSISEWVTAADKKTAVDMSGGTVTVLEKVPVSKGQLKQYFYETKCNPMGYTKEGCRGIDKRHWNSQCRTTQSYVRALTMDSKKRIGWRFIRIDTSCVCTLTIKRGR
notes: brain-derived neurotrophic factor (50 ng/ml) added to the Basic induction medium
On to B1, for which the NeuN staining entry with human MSCs [1] is reported as “stained positive”. For the same molecule, in the test on human MSCs [1] (versus untreated MSCs), the “Tuj 1 expression” value is recorded as “higher levels”. For the same molecule, the GAD67 expression result with human MSCs [2] is “down regulation”. The Nurr1 expression result with human MSCs [2] (compared to untreated MSCs) is “significant upregulation”.
